Experiments:
[1] = target: T1, HLA-E molecules expressed in PDX lung tumor tissue (Homo sapiens, UniProt P13747); experiment: LC/MS/MS validation of peptides eluted from HLA-E of PDX lung tumor tissue; settings: PDX model LU5139, HLA-E affinity column 4D12
T1 construct: tissue Crown Biosciences PDX model LU5139; host or cells: patient-derived xenograft lung tumour tissue
Protocol: FIG. 6 exemplifies a validation strategy used for cancer specific HLA-E-peptide targets. 1) Snap-frozen tumor tissue isolated from patient-derived xenograft (PDX) models, patient biopsies or freshly isolated hematological cancer cells are stored frozen in liquid nitrogen. 2) Sample of material is isolated and resuspended in 5 to 10 ml of lysis buffer and homogenized for 10 seconds on ice. After lhr incubation on ice, the sample is centrifuged for 20 min at 40,000 g. 3) An affinity column is prepared using antibody 4D12 or another antibody to HLA-E. The purified anti-HLA-E antibodies are coupled to a CN-Br-activated sepharose beads. The clarified supernatant is then applied to the affinity column. The column is washed with PBS, followed by a second wash with water and the sample eluted with 0.1M glycine pH 3.0. 4) Collected sample is immediately neutralized with addition of NH4HCO3. […]
PDX lung tumor tissue was purchased from Crown Biosciences and used for extraction of HLA-E-peptide complexes. […] An aliquot of sample supernatant was removed and protein concentration was determined by BCA assay. […]
Peptide mixture samples underwent solid-phase extraction cleanup with an Oasis HLB elution plate (Waters) and the resulting samples were analyzed by LC/MS/MS, using an Orbitrap Fusion Lumos mass spectrometer (Thermo Electron) coupled to an UltiMate™ 3000 RSLC-Nano liquid chromatography system (Dionex). […]

HLA-E*0103 = HLA-E*0103 (Homo sapiens, UniProt P13747); experiment: HLA-E*0103 peptide binding and refolding into monomer; format: biochemical
[2] = target: T2, HLA-E*0103 extracellular domain with beta-2-microglobulin (recombinant, before peptide loading) (human); experiment: peptide binding and refold into monomer complex
[3] = target: T2, HLA-E*0103 extracellular domain with …; experiment: in vitro refold, Superdex 75 size exclusion

With GLADKVYFL the “Peptide detected in lung PDX tissue by LC/MS/MS” value [1] was “isolated from HLA-E molecules expressed in PDX lung tumor tissue”.

In the case of YLLPAIVHI [RNA Helicase p68 peptide], the “HLA-E*0103 peptide binding, refold into stable monomer complexes” value (HLA-E*0103) is reported as “successfully refold HLA-E*0103/peptide into stable monomer complexes”.

YLLPAIVHI [peptide YLLPAIVHI (RNA Helicase p68)]: binds [2].

GLADKVYFL [peptide GLADKVYFL (CAD protein)]: binds [3].

From patent US20210147572A1, “ANTIBODIES AND METHODS OF USE THEREOF” (AbeXXa Biologics, Inc., priority 2017, published 2021)
